Substitutions are numbered along the chain they refer to. Names and notes keep the numbering of the source. Blank lines part the entries; values can stand above or below the molecule they belong to.
Experiments:
[1] = tested on: ParA (His6-ParA) (Myxococcus xanthus); experiment: BLI; conditions: 1 mM ATP, BLI: 25 mM HEPES/KOH pH 7.6, 100 mM KCl (150 or 500 mM where stated), 10 mM MgSO4, 1 mM DTT, 10 mM (so in the source) BSA, 0.01% Tween 20, temperature not stated
[2] = target: T1, ParB-Q52A (ParB*) Q52A (Myxococcus xanthus) (UniProt Q1CVJ4); experiment: BLI; conditions: BLI: 25 mM HEPES/KOH pH 7.6, 100 mM KCl (150 or 500 mM where stated), 10 mM MgSO4, 1 mM DTT, 10 mM (so in the source) BSA, 0.01% Tween 20; temperature not stated
T1 sequence: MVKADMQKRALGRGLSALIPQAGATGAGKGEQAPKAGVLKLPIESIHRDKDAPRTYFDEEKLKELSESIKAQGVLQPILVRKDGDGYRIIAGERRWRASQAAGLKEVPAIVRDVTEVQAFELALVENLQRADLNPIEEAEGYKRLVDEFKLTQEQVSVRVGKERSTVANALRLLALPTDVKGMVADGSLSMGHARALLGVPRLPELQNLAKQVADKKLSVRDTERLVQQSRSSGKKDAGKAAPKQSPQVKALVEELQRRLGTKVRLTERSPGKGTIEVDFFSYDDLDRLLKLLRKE

[3] = target: T2, ParB delta21 del1-21 (Myxococcus xanthus) (UniProt Q1CVJ4); experiment: BLI; conditions: BLI: 25 mM HEPES/KOH pH 7.6, 100 mM KCl (150 or 500 mM where stated), 10 mM MgSO4, 1 mM DTT, 10 mM (so in the source) BSA, 0.01% Tween 20; temperature not stated
T2 sequence: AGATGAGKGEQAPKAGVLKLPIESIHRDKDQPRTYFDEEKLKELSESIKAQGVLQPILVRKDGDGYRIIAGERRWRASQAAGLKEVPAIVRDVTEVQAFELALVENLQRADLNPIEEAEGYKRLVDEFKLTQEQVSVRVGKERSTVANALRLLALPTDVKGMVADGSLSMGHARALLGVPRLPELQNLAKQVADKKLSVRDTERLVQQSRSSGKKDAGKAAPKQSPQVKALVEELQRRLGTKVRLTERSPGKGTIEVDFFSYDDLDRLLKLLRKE

[4] = target: T3, ParA (His6-ParA) (Myxococcus xanthus) (UniProt Q1CVJ3); experiment: BLI; conditions: BLI: 25 mM HEPES/KOH pH 7.6, 100 mM KCl (150 or 500 mM where stated), 10 mM MgSO4, 1 mM DTT, 10 mM (so in the source) BSA, 0.01% Tween 20; temperature not stated
T3 sequence: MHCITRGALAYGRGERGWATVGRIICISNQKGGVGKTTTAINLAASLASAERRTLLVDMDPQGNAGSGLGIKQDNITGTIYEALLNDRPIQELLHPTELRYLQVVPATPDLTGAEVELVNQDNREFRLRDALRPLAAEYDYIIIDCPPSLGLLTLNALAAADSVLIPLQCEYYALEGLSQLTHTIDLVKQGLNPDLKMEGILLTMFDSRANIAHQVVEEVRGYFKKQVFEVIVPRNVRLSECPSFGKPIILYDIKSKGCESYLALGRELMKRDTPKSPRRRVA

[5] = target: T4, ParA-R238E (ParA*) R238E (Myxococcus xanthus) (UniProt Q1CVJ3); experiment: BLI; conditions: BLI: 25 mM HEPES/KOH pH 7.6, 100 mM KCl (150 or 500 mM where stated), 10 mM MgSO4, 1 mM DTT, 10 mM (so in the source) BSA, 0.01% Tween 20; temperature not stated
T4 sequence: T3 sequence with R238E

[6] = target: T5, ParB (Myxococcus xanthus) (UniProt Q1CVJ4); experiment: BLI; conditions: BLI: 25 mM HEPES/KOH pH 7.6, 100 mM KCl (150 or 500 mM where stated), 10 mM MgSO4, 1 mM DTT, 10 mM (so in the source) BSA, 0.01% Tween 20; temperature not stated
T5 sequence: T1 sequence with A52Q

[7] = target: T6, ParA-D60A D60A (Myxococcus xanthus) (UniProt Q1CVJ3); experiment: BLI; conditions: BLI: 25 mM HEPES/KOH pH 7.6, 100 mM KCl (150 or 500 mM where stated), 10 mM MgSO4, 1 mM DTT, 10 mM (so in the source) BSA, 0.01% Tween 20; temperature not stated
T6 sequence: T3 sequence with D60A

[8] = target: the molecule itself; experiment: crystal structure; His6-ParA_(21-274)-D60A (1 mM) with 10 mM ATP and 5 mM ParB_(1-20), sitting drop, 20 °C; crystals held only the ParA dimer with ATP
[9] = target: the molecule itself; experiment: SEC; ParA proteins at 2.5 mg/mL (75 µM) in 25 mM Tris/HCl, 200 mM KCl, 5 mM MgSO4, 2 mM DTT, pH 7.4; Superdex 75 3.2/300; monomer to dimer
ParB-Q52A = target: T7, ParB-Q52A (Myxococcus xanthus DK1622, UniProt Q1CVJ4 1-296, Q52A); experiment: BLI; ParB-Q52A (10 µM) loaded on closed parS DNA on the biosensor; ParA variants (5 µM) in solution with ATP (1 mM) and 500 mM KCl; conditions: both partners purified
T7 construct: ParB of Myxococcus xanthus DK1622, variant lacking CTPase activity; Closed clamps formed with CTP and parS DNA; also called CTP hydrolysis-deficient ParB variant; source: E. coli Rosetta(DE3)pLysS, purified (as wild-type ParB)
T7 sequence (looked up): T1 sequence

ParB (wild type) = target: T8, ParB (wild type) (Myxococcus xanthus DK1622, UniProt Q1CVJ4 1-296); experiment: BLI; double-biotinylated 234-bp parS DNA on streptavidin biosensor, loaded with ParB or its derivatives (10 µM) and 1 mM CTPγS; ParA-R238E variants in solution with 1 mM ATP; 25 mM HEPES/KOH pH 7.6, 100 mM KCl, 10 mM MgSO4, 1 mM DTT; apparent KD; conditions: both partners purified
T8 construct: ParB of Myxococcus xanthus DK1622, translation product of ORF MXAN_7476; In the BLI assays loaded as a closed clamp on parS-containing DNA with CTPγS; also called M. xanthus ParB; wild-type ParB; source: E. coli Rosetta(DE3)pLysS, purified (HisTrap HP, Ulp1 cleavage, HiTrap SP HP)
T8 sequence (looked up): T1 sequence with A52Q

ParB-Q52A-R13A = target: T9, ParB-Q52A-R13A (Myxococcus xanthus DK1622, UniProt Q1CVJ4 1-296, Q52A | R13A); experiment: BLI; ParB-Q52A variants loaded on closed parS DNA on the biosensor with CTP; ParA-R238E (5 µM) in solution with ATP and CTP (1 mM each); conditions: both partners purified
T9 construct: ParB of Myxococcus xanthus DK1622, ParB-Q52A variant lacking the conserved residue R13; also called ParB* R13A; R13A variant; source: E. coli Rosetta(DE3)pLysS, purified (as wild-type ParB)
T9 sequence (looked up): T1 sequence with R13A

ParB-Q52A-R13K = target: T10, ParB-Q52A-R13K (Myxococcus xanthus DK1622, UniProt Q1CVJ4 1-296, Q52A | R13K); experiment: as above; conditions: both partners purified
T10 construct: ParB of Myxococcus xanthus DK1622, ParB-Q52A variant lacking the conserved residue R13; also called ParB* R13K; R13K variant; source: E. coli Rosetta(DE3)pLysS, purified (as wild-type ParB)
T10 sequence (looked up): T1 sequence with R13K

Molecule: 234-bp parS fragment, closed on biosensor
Kd ([1]; 150 uM ParB1-20 peptide): 400 nM
Kd ([1]; no ParB1-20 peptide): 7800 nM

Molecule: TCCGCTTGGCGTGAGTTCCTGACGCTTGGTGGGAAGGATGCGCGTGCTGATGCGTGCACCTCAGTGAAGTGGATGGCGCGGCTGCTCATGCGCGGGTTGCTCAGCGCCTGTTCCACGTGGAACGCGGGATGGATTGATGGTGGGCACGCGCGCAGCGCCGGAGAGTTCGCTGACGGCTCCGCGTTCAGGCTCGTGATGCGCTCATGGTTCATGGAGTGGTGAGTGCTCCACCGG (double strand) [234-bp parS fragment, closed on biosensor]
binding [2]: binds
binding [3]: binds
Kd [4]: 400 nM
binding [5]: no binding
binding [6]: binds
binding [7]: binds

B1: His6-ParA_(21-274)-D60A (domain or fragment, Myxococcus xanthus DK1622, UniProt Q1CVJ3 21-274, looked up)
chain: VGRIICISNQKGGVGKTTTAINLAASLASAERRTLLVDMAPQGNAGSGLGIKQDNITGTIYEALLNDRPIQELLHPTELRYLQVVPATPDLTGAEVELVNQDNREFRLRDALRPLAAEYDYIIIDCPPSLGLLTLNALAAADSVLIPLQCEYYALEGLSQLTHTIDLVKQGLNPDLKMEGILLTMFDSRANIAHQVVEEVRGYFKKQVFEVIVPRNVRLSECPSFGKPIILYDIKSKGCESYLALGRELMKRDT
notes: For NMR the protein was 2H/13C/15N-labelled; source: E. coli Rosetta(DE3)pLysS, purified (as His6-ParA)
binding result [8]: binds

B2: ParA (wild type) (natural protein, Myxococcus xanthus DK1622, UniProt Q1CVJ3 1-283, looked up)
chain: T3 sequence
notes: ParA of Myxococcus xanthus DK1622, translation product of ORF MXAN_7477; No tag cleavage step is described; also called His6-ParA; wild-type ParA; source: E. coli Rosetta(DE3)pLysS, purified (HisTrap HP, HiTrap Q HP)
binding result [9]: binds
binding result (ParB-Q52A): binds

B6: ParA-D110R (natural protein, Myxococcus xanthus DK1622, UniProt Q1CVJ3 1-283, looked up)
chain: T3 sequence with D110R
notes: ParA of Myxococcus xanthus DK1622 with an exchange in the helix H4/H6/H7 region; source: E. coli Rosetta(DE3)pLysS, purified (as His6-ParA)
binding result (ParB-Q52A): binds

More lines, now with the values ahead:

binding result (ParB-Q52A): binds
B3: ParA-E117R (natural protein, Myxococcus xanthus DK1622, UniProt Q1CVJ3 1-283, looked up)
chain: T3 sequence with E117R
notes: as for B6

binding result (ParB-Q52A): binds
B4: ParA-Y81L (natural protein, Myxococcus xanthus DK1622, UniProt Q1CVJ3 1-283, looked up)
chain: T3 sequence with Y81L
notes: ParA of Myxococcus xanthus DK1622 with an exchange in the helix H4/H6/H7 region; also called Y81L variant; source: E. coli Rosetta(DE3)pLysS, purified (as His6-ParA)

binding result (ParB-Q52A): binds
B5: ParA-D110R/E117R (natural protein, Myxococcus xanthus DK1622, UniProt Q1CVJ3 1-283, looked up)
chain: T3 sequence with D110R, E117R
notes: ParA of Myxococcus xanthus DK1622 with two exchanges in the helix H4/H6/H7 region; source: E. coli Rosetta(DE3)pLysS, purified (as His6-ParA)

Kd (ParB (wild type)): ~1000 nM
binding result (ParB-Q52A-R13A): binds
binding result (ParB-Q52A-R13K): binds
B7: ParA-R238E (natural protein, Myxococcus xanthus DK1622, UniProt Q1CVJ3 1-283, looked up)
chain: T3 sequence with R238E
notes: ParA of Myxococcus xanthus DK1622, translation product of ORF MXAN_7477; Purified as His6-ParA; no tag cleavage step is described; also called His6-ParA-R238E; source: E. coli Rosetta(DE3)pLysS, purified (HisTrap HP, HiTrap Q HP)

Reference: publication PMC12462528, “Molecular basis of ParA ATPase activation by the CTPase ParB during bacterial chromosome segregation” (Nature Communications, 2025)
